In general, Km refers to the concentration of substrate that gives half-maximal velocity. As a reminder, the Vmax is the top rate of the reaction or transport when substrate is in excess.

Substrate in the data set: C[C@]12CCC(=O)C=C1CC[C@@H]1[C@@H]2CC[C@]2(C)C(=O)CC[C@@H]12
In words: cells, lysate or membranes. The settings on record: substrate.

Numbering of substitutions follows the chain as printed. Names and notes keep the numbering of the source.

B1: wild-type aromatase (Homo sapiens) (protein)
chain: MVLEMLNPIHYNITSIVPEAMPAATMPVLLLTGLFLLVWNYEGTSSIPGPGYCMGIGPLISHGRFLWMGIGSACNYYNRVYGEFMRVWISGEETLIISKSSSMFHIMKHNHYSSRFGSKLGLQCIGMHEKGIIFNNNPELWKTTRPFFMKALSGPGLVRMVTVCAESLKTHLDRLEEVTNESGYVDVLTLLRRVMLDTSNTLFLRIPLDESAIVVKIQGYFDAWQALLIKPDIFFKISWLYKKYEKSVKDLKDAIEVLIAEKRRRISTEEKLEECMDFATELILAEKRGDLTRENVNQCILEMLIAAPDTMSVSLFFMLFLIAKHPNVEEAIIKEIQTVIGERDIKIDDIQKLKVMENFIYESMRYQPVVDLVMRKALEDDVIDGYPVKKGTNIILNIGRMHRLEFFPKPNEFTLENFAKNVPYRYFQPFGFGPRGCAGKYIAMVMMKAILVTLLRRFHVKTLQGQCVESIQKIHDLSLHPDETKNMLEMIFTPRNSDRCLEH
Turning to B1, where the note is “other: WT aromatase”, the Km is on record as 27.3 ± 2.5 nM and the Vmax came out at 5.32e-07 µmol/min/mg.

B2: aromatase M374T mutant (Homo sapiens; M374T) (protein)
chain: B1 chain with M374T
Take B2: under “other: M374T mutant”, the Michaelis constant (Km) worked out at 17.8 ± 2.0 nM and the maximum rate (Vmax) was determined as 4.5e-08 µmol/min/mg.

B3: aromatase W224F mutant (Homo sapiens; W224F) (protein)
chain: B1 chain with W224F
B3: for the setting “other: W224F mutant”, the Km was 67.0 ± 5.1 nM and the Vmax was 1.18e-07 µmol/min/mg.

B4: aromatase F221Y mutant (Homo sapiens; F221Y) (protein)
chain: B1 chain with F221Y
As for B4, under “other: F221Y mutant”, the Michaelis-Menten constant (Km) is 2.9 ± 0.3 nM and the Vmax worked out at 1.22e-07 µmol/min/mg.

For the origin of these results see article PMC3253312 (Steroids, 2011).
